Measured values as given in the nanobody polyreactivity screen of Harvey et al. (2022).

Assay: yeast display, Sf9 membrane polyspecificity reagent, FACS + sequencing; frameworks hold sequencing errors
How it was run: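 Galactose-induced (36–48 hours) yeast carrying a synthetic nanobody display library were exposed to 10% biotinylated, detergent-solubilized Sf9 membrane reagent at 4 °C for 1 hour. FACS followed streptavidin microbead enrichment, using low and high (top ~1%) gates for expression (anti-HA) and reagent binding (streptavidin). Colony PCR, MiSeq 2 × 250 sequencing and CDR-length filtering followed. Labels for polyreactivity reflect the gate of origin.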

Sequence: QVQLVESGGGLVQAGGSLRLSCAASGSTFYNNAMGWYRQAPGKEREFVAAIRYRGGSTYYADSVKGRFTISRDNAKNTVYLQMNSLKPEDTAVYYCAADQGVYRTYWVDYWGQGTQVTVSS
- polyreactivity (PSR sort gate): high polyreactivity

Sequence: QVQLVESGGGLVQAGGSLRLSCAASGSIFDSYAMGWYRQAPGKERELVAAISRSGSRTYYADSVKGRFTISRDNAKNTVYLQMNSLKPEDTAVYYCAAGLSGYSRKIYYWGQGTQVTVSS
- polyreactivity (PSR sort gate): high polyreactivity

Sequence: QVHLQESGGGLVQAGGSLRLSCEASGSISRYYDMVWYRQAPGKELEFVAGISGGAITYYADSVKGRFTISRDNAKNTVYLQMNSLKPEDTAVYYCAADTGVYQYHSYWGQGTQVTVSS
- polyreactivity (PSR sort gate): low polyreactivity

Sequence: QVQLVESGGGLVQAGGSLRLSCAASGFTFAFYAMGWYRQAPGKERELVAAITGSGGSTYYADSVKGRFTISRDNAKNTVYLQMNSLKPEDTAVYYCAADKYLDYDYWGQGTQVTVSS
- polyreactivity (PSR sort gate): high polyreactivity

Sequence: QVQLVESGGGLVQAGGSLRLSCAASGSTFSRNAMGWYRQAPGKERELVATISRSGRTNYADSVKGRFTISRDNAKNTVYLQMNSLKPEDTAVYYCNAGYRRSYEYWGQGTQVTVSS
- polyreactivity (PSR sort gate): low polyreactivity

Sequence: QVQLVESGGGLVQAGGSLRLSCAASGSIFGYYAMGWYRQAPGKERELVAVIRRSSGSTYYADSVKGRITISRDNAKKTVYLQMNSLKPEDTAVFYCASRRYEPIIWHSMDYWGQGTQVTVSS
- polyreactivity (PSR sort gate): low polyreactivity

Sequence: QVQLVESGGGLVQAGGSLRLSCAASGRTFVYYAMGWYRQAPGKEREFVATITSSGGSTYYADSVKGRFTISRDNAKNTVYLQMNSLKPEDTAVYYCNADSVSSPPYYDYWGQGTQVTVSS
- polyreactivity (PSR sort gate): high polyreactivity

Sequence: QVQLVESGGRLVQAGGSLRFTCAASGSIFYSYAMGWYRQAPGKERELLAAINYSGSSTYYADSVKGRFTISRDNAKNTVYLQMNSLKPEDTAVYYCAAVIHSQYVDYYYWGQGTQVTVSS
- polyreactivity (PSR sort gate): high polyreactivity

Sequence: QVQLVESGGGLVQAGGSLRLSCAASGRIFLINAMGWYRQAPGKERELVAAITVSGTRTYYADSVKGRFTISRDNAKNNVYLQMNSLKPEDTAVYYCAAKLQYRWTCGYYYWGQGTQVTVSS
- polyreactivity (PSR sort gate): high polyreactivity

Sequence: QVQLVESGGGLVQAGGSLRLSCAASGFIIYYNAMGWYRQAPGKEREFVAGISFSGDGRTYYADSVKGRFTISRDNAKNTVYLQMNSLKPEDTAVYYCAAPHRSRTHELDYWGQGTQVTVSS
- polyreactivity (PSR sort gate): low polyreactivity

Sequence: QVQLVESGGGLVQAGCSLRLSFAASGFSFRRYALGSYIPAPGKERELVAAITNSGGSTYYADSVKGRFTISRDNAKNSVYLQLNSLKPEDTAVYYCVALRSACAYDYWGQGTQVTVSS
- polyreactivity (PSR sort gate): high polyreactivity

Sequence: QVQLVESGGGLVQAGGSLRLSCAASGRTFANYAMGWYRQAPGKERELVAAITSGGRTYYADSVKGRFTISRDNAKNTVYLQMNSLKPEDTAVYYCAADYTYDYQNDYWGQGTQVTVSS
- polyreactivity (PSR sort gate): high polyreactivity

Sequence: QVQLVDSGGGVVQAGGSLRLSCPASGIILRRYAMGWYRQAQGKERELVARISYRGGRTNYADSVKGRFTISRDNAKNTVYLQMNSLKPEDTAVYYCAAVAWDYHEGTAYNYWGQGTQVTVSS
- polyreactivity (PSR sort gate): high polyreactivity

Sequence: QVQLVESGGGLVQAGGSLRLSCAASGRIFGYNAMGWYRQATGNERELVAAITNGGSTNYADSVKGRFTISRDNAKNTVYLQMNSLKPEDTAVYYCAVKWYPPGHDYWGQGTQVTVSS
- polyreactivity (PSR sort gate): low polyreactivity

Sequence: QVQLVESGGGLVQAGGSLRLSCAASGFTFDGYAMGWYRQAPGKERELVAAITRRGGRTYYADSVKGRFTISRDNAKNTVYLQMNSLKPEDTAVYFCAAERYGDRFYGAYDYWGQGTQVTVSS
- polyreactivity (PSR sort gate): high polyreactivity

Sequence: QVQLVESGGGLVQAGGSLRLSCAASGFTLGRYAMGWYRQAPGKERELVAAITGRGGTTYYADSVKGRFRISRDNAKNTVYLQMNSLKPEDTAVYYCAADTKLSYQWFDYWGQGTQVTVSS
- polyreactivity (PSR sort gate): high polyreactivity

Sequence: QVQLVETGGGLVQAGGSLRLSCAASGIIIPWYTMGWYRQAPGKERELVAAISSGGRTNYADSVKGRFTISRDNAKNTVYLQMNSLIPEDTAVYYCAANYYRDRDWGQGTQVTVSS
- polyreactivity (PSR sort gate): high polyreactivity

Sequence: QVQHVESGGGLVQARGSLRLSCAASGSIFDLNAMGRYRQAPGKERELVAAISSGGGTYYADSVKGRFTISRDNSKNTVYLQMNSLKPVDTAVYYCKRVTRWTYNYWGQGTQVTVSS
- polyreactivity (PSR sort gate): high polyreactivity

Sequence: QVQLVESGGGLVQAGGSLRLSCAASGSTFGGYAMGWYRQAPGKERELVAAISSGGSTYYADSVKGRFTISRDNAKNTVYLQMNSLKPEDTAVYYCAADTYAHWGYYGSYYRDDYWGQGTQVTVSS
- polyreactivity (PSR sort gate): low polyreactivity

Sequence: QVQLVESGGGLVQAGGSLRLSCAASGSIFRCNAMGWYRQAPGKERELVAVINSSGGSTYYADSVKGRFTISRDNAKNTVYLQMNSLKPEDTAVYYCAADLFLDGSSQYDPNWWPDGWNTYRLLGGYWGQGTQVTVSS
- polyreactivity (PSR sort gate): low polyreactivity

Sequence: QVQLVESGGGIVQAGGSLRLSCAASGRTFAYYAMGWYRQAPGKERELVAAIDSSGGSTYYADSVKGRFTISRDNAKNTVYLQMYSLKPEDTAVYYCAASYPYDRYDQGGYGYWGQGTQVTVSS
- polyreactivity (PSR sort gate): low polyreactivity

Sequence: QVQIVESGGGLVQAGGSLRLSCAASGSIFSYNVMGWYRQAPGKERELVAAISWNDGSTYYADSVKGRFTISRDNAKNTVYLQMNSLKPEDTAVYYCAAEYGRRWHNELDYWGQGTQVTLSS
- polyreactivity (PSR sort gate): low polyreactivity

Sequence: QVQLVESGGGLVQAGGSLRLSCAAAGFIFWSNAMGWYRQAPGKERELVAAIRNTGSTNYADSVKGRFTISRDNAKNTVYLQMNSLKPEDTAVYYCATKPYPYYLYYYWGQGTQVTVSS
- polyreactivity (PSR sort gate): high polyreactivity

Sequence: QVQLVESGGGLVQAGGTLRLSCAASGSTFWRNTMEWYRQAPGKERELVAAITGCGGRTYYADSVKGRFTISRDNAKNTVYLQMNSLKPEDTAVYYCAADGRGVHYDYWGQGSQVTVSS
- polyreactivity (PSR sort gate): high polyreactivity

Sequence: QVHLVESGGGLVQAGGSLRLSCASSASIINVYAMGWYRQAPGKEREFVADINYSGGSTYADSVKGRFTISRDNAKNTVYLQMYSVKPEDTAVYYCADVYGYLYYELYYWGQGTQVTVSS
- polyreactivity (PSR sort gate): low polyreactivity

Sequence: QVQLEESGGGLVQAGGTLRLSCAASGSTYVPYAMGWNRQETGKERELVSAIRRRGDSTNYADSVKGRFTISRDNAKNTVYLQMNSLKPEDTAVYYCAVRPYRSACGSVTRGAYYYWGQGTQVTVSS
- polyreactivity (PSR sort gate): high polyreactivity

Sequence: QVQLVESGGGLVQAGGSLRLSCAASGSTFAKYAMGWYRQAPGKERELVASIRLSGGSTYYADSVKGRFTISRDNAKNPDYLQMNSLNPEDTAVYYFNKQFATFYYGFDYYYWGQGSQVTVSS
- polyreactivity (PSR sort gate): low polyreactivity

Sequence: QVQLVESGGGLVQAGGSLRLSSAASGSTFFSYAMGWYRQAPGKERELVAAISWIDDGTYYADSVKGRFTISRDNAKNTVYLQMNSLKPEDTAVYYCAADIGAYRTWDYEYWGQGTQVTVSS
- polyreactivity (PSR sort gate): low polyreactivity

Sequence: QVQLVESGGGLVQAGGSLRLSCAASGSIFAYYTMGWYRQAPGNERELVAALSRSGGSTNYADSVKGRFTISRDNAKNTVYLQMISLKPEDTAVYYCAVRRYSRRLFGYYYWGQGTQVTVSS
- polyreactivity (PSR sort gate): high polyreactivity

Sequence: QVQLVESGGGLVQAGGSLRLSCAASGFIFRKYAMGWYRQAPGKERELVAAIRQRGGTTYYADSVKGRFTISRDNAKNTVYLQMNSLKPEDTAVYYCAAPYSSAYKYDYWGQGTQVTVSS
- polyreactivity (PSR sort gate): high polyreactivity

Sequence: QVQLVESGGGLVQAGGSLRLSCAASGFTFSIYAMGWYRQAPGKERELVAAISGRGSSTYYADSVKGRFTISRDNAKNTVYLQMNSLKPEDTAVYYCKKFHHAYFSSVYSYAGGYWGQGTQVTVSS
- polyreactivity (PSR sort gate): high polyreactivity

Sequence: QVQLVESGGGLVQAGGSLRLSCAASGSIFRLYAKGWYIQAPGKERELVAAISSGGSTYYADSVKGRFTISRDNAKNTVYLQMNSLKPEDTAVYYCNTAWTYWRYDYWGQGTQVTVSS
- polyreactivity (PSR sort gate): high polyreactivity
